Assay results taken from article PMC10347550 (2023).

Molecular target: integrin αIIbβ3 (Homo sapiens, UniProt P08514)
Assay: tryptophan fluorescence quenching (Stern-Volmer)

Row | Kd | Binder
1 | 83 nM | Ac-MRGDH-NH2 (also: Met and His coordinated to Δ-Ru(Ph2phen)2, Cl2 salt) [Δ-[Ru(Ph2phen)2(Ac-MRGDH-NH2)]Cl2 (Δ-[1]Cl2)]
2 | 112 nM | Ac-MRADH-NH2 (also: Met and His coordinated to Δ-Ru(Ph2phen)2, dichloride salt) [Δ-[Ru(Ph2phen)2(Ac-MRADH-NH2)]Cl2 (Δ-[3]Cl2)]
3 | 61 nM | Ac-MRGDH-NH2 (also: Met and His coordinated to Λ-Ru(Ph2phen)2, Cl2 salt) [Λ-[Ru(Ph2phen)2(Ac-MRGDH-NH2)]Cl2 (Λ-[1]Cl2)]
